The values below come from the supplement of paper PMC12636428.

This data set has as its system Saccharomyces cerevisiae. In words: transcriptional activation domain activity (GFP:mCherry ratio, weighted mean of sorted bins, harmonized to initial dataset scale) (arbitrary fluorescence ratio units); higher = stronger transcriptional activation. As to conditions: beta-estradiol 1 µM; induction time 4 h. The method, boiled down:
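In diploid yeast carrying a GFP reporter, barcoded protein tiles fused to an estradiol-inducible synthetic transcription factor were integrated at the URA3 locus. Cultures diluted 1:5 into SC with 1 uM beta-estradiol were kept at 30 °C for 4 hours, then sorted by GFP:mCherry ratio into 8 bins before barcode sequencing. Tiles with under 50 reads were excluded. The activation activity reported here is the read-weighted mean of bin median fluorescence, averaged across barcodes and linearly rescaled to the initial dataset.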

With “GLLCWIAIRKLGIIGLYVYMDDFFGWDFLDNLIFYRGMRRPRRQVLLLILWEF”, the “transcriptional activation domain activity” value is 50700. The figure for “KQYCVRPNSGRIEPGRDVEVQVLLQAMREDPPPDAKCRDKFLVQSVAVTADKE” is 44900; for “DSDEEDESELETDSESETGGIPIHESLSGAKSEDADKNERTIFIGNITVTAVQ” it is 46400.

In the case of “LSLADFAWKLSDGEEKREQCGNVAQILLNTISHRVLRTIIRHLVAVVGVLTPS”, the “transcriptional activation domain activity” value worked out at 60000. “PKCSSLRKPTNTLQGTNHAYHEHILNTDMDLKILEDLCNISSLYEVPFGKHIN”: the “transcriptional activation domain activity” value came out at 115000.

Take “ITMQQIQRDSDKYLCIQGVFELFRSPLYTVLTLDKSVLGPTVLVRLLTVLAER”: the “transcriptional activation domain activity” value amounted to 39400. In the case of “ALTLEYFYFECSTPVPDGLLTDPLPPLPKLLVIHFFFYLSQHTIYLLLHILSQ” it was 60200; in that of “DFTLEQDPDVLDTWFSSGLWPFSILGWPDKTPDLKTFYPATILETGWDILFFW”, 54800; in that of “KAAPAPAASGDEGGEDEDEEDGDAVARRHQSKRSRRGIVVEESDEEDEGEPAA”, 41100. The figure for “ERDMELLVGHFDFMAKEAFLADSISLCSTEEELERRLDTPVIQEDSPVMDNNT” is 62900. In the case of “EEEAVVSAATDEAVKEEGRQVDAGSADAGGEAAAPRKKIRKRSKAKPTPEQKL” it was 21200; in that of “WSVLLCFAVSFFSFSFLSFWAVTALCYGFVFVFFILLCVLCCFSFAFSHVYLF”, 49600. Regarding “IMGLVFRRARRRTVSLVTKYLITETEVVITYIPAVAVAIFPQLNWIYWMIFYP”, the “transcriptional activation domain activity” value was found to be 65800. Take “ILVYLSSVKLRNYRGNTYSFIHLTPWVPLDLLKYACDFLGLLSGFNLLPLYFQ”: the “transcriptional activation domain activity” value was 56300. In the case of “MMPRGSYLAFFLLLLFYSFLSLFTPLNFVFLFFLSPLLRLHTLFYLLYFFGLA” it was 42100. In the case of “MMLLSVRLCIVFFSFMAACFGIPYTPSILFASLFASALGLHILRIFFLVIVHF” it was 51300.

As for “LELQHFLLSFAHFPLLVWVFSWVLVFGFNWFLSIYGVLELFFLFCSHCWIAWS”, the “transcriptional activation domain activity” value turned out to be 63900.

For “QKKKEAAARNKAKAAPAKEEAAVTPAKVVEKPAAAAAATPAKGGKKMTAALRL”, the “transcriptional activation domain activity” value was 37600. In the case of “AKANGAAKAAAVKPKDDSSDSSDSDSESDEEKAPAKAKEAKKAEVCTCCLSTV”, the “transcriptional activation domain activity” value was determined as 17500. The figure for “PRHIQTIDEKLINDSNYLAFLKFDDLENEKFHSSASSISSPSYSSPSFSSYRN” is 82100; for “LEGPPLEKTGSDILQQVCNVLPSFEQSSKIITDFFNTELETNEVSEVLDKTKI” it is 49900; for “NLYGNDEEVLFYEDNYNPKMQWSLQDNSAAINNEDARAIFNNEFDSDDDDISD” it is 86600. On to “MSTAGHSRQPDHATVPARSFGGCSTCRRRHIKCDEGRPSCSACRDSGLACGGY”, for which the “transcriptional activation domain activity” value was determined as 53000.

With “FIVHTAELHLFRKQYVGQLYRSQKLLGLLARRPHIARLVTRFGMHAMSAPLFY”, the “transcriptional activation domain activity” value came to 57100. The figure for “SFWNTAFHPVYFNTTDLVLSFPFLFLPSFSSFFSFLFCIVIFTIVQRLYVFIS” is 97000; for “SWRDPSYIYSKIGLCSTASLFLGLSFLNQPVSLQGVQNQIFSFFMLLVIQVFM” it is 60200. The figure for “SLEAWVPSVKLMMHDRSGLSRDGRTAVYHLIALTLRYSEIYVEQILVLWKGLV” is 44200; for “FSTSLTSWSTSLNLLFFYMTWSTLVLSHSPLRIELIGITAIRTVLWLIPSLVF” it is 63100; for “ARDMLEDTFLIPKNLYAVHGPGISVKALEIADALVDVVNQYDQNAESEAWNFL” it is 112000.

On to “LVLTGDAHSTYDVEVLVLMYILICGPFNFISGQLGEYRSIALVNVEFVVVWPA”, for which the “transcriptional activation domain activity” value turned out to be 63300.

As for “SQVAVSPGAVIEVNEEDAGEEQEQQQPARKRQRHRSKRQKLDAEQSAGQGGVV”, the “transcriptional activation domain activity” value stood at 31700. For “EEDEETSHEVRSKVYKLVKKSDGNQEWNDMGVETGSRRVLLRNSSTGKIVINF”, the “transcriptional activation domain activity” value was found to be 25400.

For “MYFCLDKLRRLACFLSLFFVSFFLFLCLTLFFALLFIISLSLLMYRCVLISLC”, the “transcriptional activation domain activity” value is 14000.

“MNRFSIRFTFVISLIDILRGIIILLYTYIHNVGFQCSLISFLFHWLTLVYFFL”: the “transcriptional activation domain activity” value was found to be 55100. On to “EKRGAAKRADRSRSRSRGRSRGAKDVARRRRRNSSADSHEAREHRRQGKRGRS”, for which the “transcriptional activation domain activity” value was determined as 44700. In the case of “MIEMMAFRIALGFVGGLGLDGVWCGFFFPFKFVVFSFLHTLSISLGLDFFFLL”, the “transcriptional activation domain activity” value stood at 91700. With “LAESQRQNQQGGRGRGGRSLFDRTERGRGNRRGGHQGNGHHARQDEAANGGAE”, the “transcriptional activation domain activity” value is 17600. As for “RVFLFRLMLSLIYTFLGSLCVTGAVWAYRVNWKVNGNQFVLSWMAIWLFAHCN”, the “transcriptional activation domain activity” value came out at 44800.

As to “SSSGTPQAKSSSPSSTAASTKAPTSSATKPTSTGSCRKKRSNSTQRRSRTSRM”, the “transcriptional activation domain activity” value came out at 45400. With “YVVVVLTAMQVGLATETLAHNKAFVTISYGFSIFSIFIPIVFTLLLLLVFFFV”, the “transcriptional activation domain activity” value was found to be 19400.

With “RKNTSSEEDELEESRNNRNKNHRSRQDGNKEDRSSRSRQSHRQKRERSGSEER”, the “transcriptional activation domain activity” value came out at 14100. The figure for “QVKAKTARKSSRAATKKSSAKRRRDESSEESSDEDESGGERVSRGRGGAVRDK” is 36000. In the case of “NWYKHINWLNTFFVVIMPMLGFIAAYWVPLHRYTALFAIFYYVHCGLGITAGY” it was 68500; in that of “RNILLFTMVADGESSLVIWSIFYHFFLDDNSLGLLLAQCRKLVQISNDMQTWM”, 58900. As to “MDEEVEERNKAFEWTSYSWGKMQIIRYWSRCHAIVVLYTSKRRMWLLVCWLSA”, the “transcriptional activation domain activity” value was determined as 60400. On to “MDDTERRTAKRSRFDQTEPEPKPRASRFDRRSRSPPARKPESRRSRSPIARPS”, for which the “transcriptional activation domain activity” value came to 17000. The figure for “MPPKRGRPKKASTPPPAPVEDEAPAPVAAPRGRGRPRKVQPSGDPEQTTAPTP” is 28500. In the case of “AAEDGKKGDKAEVGKRGDKAEVKKVKKVDGEEAGGEKVVVEKKAGAEQKAVKA” it was 17500. In the case of “MSFQPLFYLLGLGVLFPLLFLLLSPPLFPSMAPFFLLQILLLMLTTELFFVPL” it was 39700; in that of “LMFLVLIVSNLRLMIENFRKYGVLICIRCHDYRRQDVVYGSILYFLVPCHLFV”, 73100. Consider “FILGLIFVFAFVWHERSMAACPLIPIKAMTAQATFVLVCTATGWASFSIWIYY”, for which the “transcriptional activation domain activity” value came to 60700. The figure for “DALGLRRPSLYYKALVAGQCIFFMALCYTYRMIPYLDQKKIKTLKKVFFRIII” is 68800; for “RRDSVSSSSRGQGGEKGRASSKESNNSGRQGETTSNRSQSKNRAKQTKGDKDS” it is 15900; for “NADGMDGEKFYKSIDSAYGFANSSLVHLLLHDQKLLMRLRYLRRLFFGAESDW” it is 48800. The figure for “FWFPNYLFEALTFFSWMTWISPNNLNLEILTGFRNGLGMFNPWPTFDWNVLLF” is 51500. Consider “TECASIPFAKMRALLNGIPVTNLNDRDRMMLFIFKLVLLEVRSKNTLEILSNH”, for which the “transcriptional activation domain activity” value is 33400. The figure for “GSSTTPARCTSARTMRSASYGASKYKGREGKVTQVYRKKWVIHVQRDKVGQVR” is 83200; for “KEAKSKSKAAHDNDAKRKTTATKPKRTSARNGKAPVKSKPKKGGGNAEPSAKK” it is 10300; for “YVVLEVGLNVQLDRMAQSDARMVVHALSGGPFIDVVRWVPLRMSSGAFQIGLR” it is 68300. In the case of “HSLGSNASIDHLYTYTHAYIYTLYIWLPKMFSFFPFAIIFFLCMLLLFFIFIF” it was 64600; in that of “DVPEEKKAESEKVDSDQEKAESEAKKIDETPAKETADKPEEKSEDKAEDKAAE”, 26100.

With “EVEAAIAAAAAEVEKVEVKAKAKAEAAAAAAAAAEAAAAAEARAAAAAAAQAA”, the “transcriptional activation domain activity” value was found to be 30700.

Turning to “NLLDFRKILVNVVCILVVDVVLLMSMLIGLLRYSHRNSTGLWHLLYQQCIIWL”, the “transcriptional activation domain activity” value came out at 45000. In the case of “EESGGESGGAADKNARVLSTALELALIVLDTCVELDGGRSLSLEHTALLLAAG” it was 69300; in that of “DDEGSTRDRKSHKRRSRDKDDSDEEEDRKRRKRRKERERSKDKEERRSVLTGK”, 28900. The figure for “GAGGGITSNGGGKPAAAAEGAKPASEAPKEASKPEGAKPASESPKPEGEKPAA” is 27600; for “VIDGSYTTSLKMILFLLAISGQNLLFFFILISLTFLLFLFSTCLCMILLDALI” it is 22100. In the case of “EEEYEEEEEEEYEEEEDEEEDEDEEEGGEGEEEDEVKAQRGRRAATAPARARR” it was 28000.

Regarding “CPQPLIYCKPCKILQTQYDRLHINHMTFNMISHHLYRGLLPLLVVVCLLGKIV”, the “transcriptional activation domain activity” value was 62100.

For “VLLITLILSSRINITPVVHVNPSFSTVHLIIIPHFLCNIITLLIYFIVCWGST”, the “transcriptional activation domain activity” value was determined as 56800. The figure for “DEEGRKRGGEREKGQHAGDERRRRRRRGEREGRERQKEGRRGPGRQSKDGKEG” is 49500.

With “MPCLCHFWMTCLCHFRMPLFFYFQMPCLCHFWMTCLCHFLMPCLFYFWMPFLC”, the “transcriptional activation domain activity” value was determined as 43200. In the case of “MNLLFITFFLLVMWVVWFICVVVPFFLLLLLCFFSFLFFRLFGAGWLGWVGNF”, the “transcriptional activation domain activity” value was found to be 42500. In the case of “KKEEEGEESEPEKLPKSTKRGRKKVEEEVKAEGEEEEEEAPVAKKQKPAANGS” it was less than 6570.
